# In the DeepSol protein solubility set:
# Assay: soluble on expression in E. coli; label from the status in PepcDB or PDB records
row,Sequence,soluble on expression in E. coli
1,MNYTTEFKLGTDGLDVVPGATNTFEMPEGVIPSANATVYFYSGGMPESATANYTGAGNLWSFTSTNGIDSSAGAIRVEITQGRNFGDDPGLVTATATTRAWNEPPLVTVDQSVSGETKFAFSIPVGKPGNDGISAYAQAHAQGFNGSVDDWLESLRGANGKSAYELAVTQGFQGSSADWLNSLKGATGKSAYEVAVAQGFTGALAEWVESLKGVAGKSAYDIALDAGYKGSHLDWLNSLKGGKGDKGDHGKSAYQVAFDAGFSGTEAEWLESLKAPSAPAVGGYKELANGVLWYCRPRYNTGRCTVPDTGWGAYDYETAEHTTKFVIEDGLFEDHGCYVVPDASNLPTDDLRLRMTRGVNRGIHHAGRMTNRSDLVPPYSATTSYFIDRWAAKFYGWYYVMLSPQESAQFLADTDLEKIEVDVQPVTFSGVDVTNWAPGGTETYFLAKEQGLLVPIYKGASRHTVSATGETIVALWFRVGVYTHRSNIGSDNHSFDGINGEPDGWNLHDVDVKFWSTNVAQGMKFSAKIRN,not soluble
2,MVNLELIEVQEGKAKILIPKAESIYDSPVFYNPRMALNRDIVVVLLNILNPKIVLDALSATGIRGIRFALETPAEEVWLNDISEDAYELMKRNVMLNFDGELRESKGRAILKGEKTIVINHDDANRLMAERHRYFHFIDLDPFGSPMEFLDTALRSAKRRGILGVTATDGAPLCGAHPRACLRKYLAVPLRGELCHEVGTRILVGVIARYAAKYDLGIDVILAYYKDHYFRAFVKLKDGARKGDETLEKLGYIYFDDKTGKFELEQGFLPTRPNAYGPVWLGPLKDEKIVSKMVKEAESLSLARKKQALKLLKMIDQELDIPLFYDTHAIGRRLKIETKKVEEIISALREQGYEATRTHFSPTGIKTSAPYEVFIETIKRI,soluble
3,MSLKAPVDFEQEVAPLLSQRCVSCHSPNIKKGELSLAGPEDLLANGYVVPGDPAGSYLLEVVSPAGDDPAAMPKLGDALAEPEVALLRRWIEQGAVWPDGFVIREASKADRSWWSLQPLADIHPPEVAAAPAAWRQNPIDRFVWAKLSEANLKPNSPADRRTLIRRATFDLTGLPPTAEEIDTFVASDSPDAYPQLIDRMLASPRYGERWGRHWLDVIRFGESRGFERNQIITNLWPFRDYVIRSINEDKPFDQFIREHLAGDVIAPNTPQVEVGSAFLVAGPYDDVGNEGHHHHHH,soluble
4,MMGNKLTLPAELPDEQDLRAVLAYNMRLFRVNKGWSQEELARQCGLDRTYVSAVERKRWNIALSNIEKMAAALGVAAYQLLLPPQERLKLMTNSADTRQMPSESGI,not soluble
5,MDSARALIARGWGVSLVSRCLRVSRAQLHVILRRTDDWMDGRRSRHTDDTDVLLRIHHVIGELPTYGYRRVWALLRRQAELDGMPAINAKRVYRLMRQNALLLERKPAVPPSKRAHTGRVAVKESNQRWCSDGFEFCCDNGERLRVTFALDCCDREALHWAGTTGGFNSETVQDVMLGAVERRFGNDLPSSPVEWLTDNGSCYRANETRQFARMLGLEPKNTAVRSPESNGIAESFVKTIKRDYISIMPKPDGLTAAKNLAEAFEHYNEWHPHSALGYRSPREYLRQRACNGLSDNRCLEI,not soluble
6,MSDNKESKKISIEIDGKDYQALPNQSIIEVADANGIYIPRFCYHKKLSVAANCRMCLVDVEGARRASPACATPVMDGMKVKTRSEEALQMQKDVMEFLLINHPLDCPICDQGGECELQDIAMGYGNTTSEYLESKRTVEDPELGPLVATDMTRCILCTRCVRFGEEIAGVKELGVMGRGDHSAISTYISGEMVDSEISANIIDLCPVGALTSKPFRFKARSWELKQFPTLSAGDALATEINAHIYQNKLVRVVPRENDITGTWIADRDRFEYTGLYSQDRIQQPMIKKTGDWVDLSWEEALDFVKVAIQKTIEKDGADAISAIVSETATSEEMYLTKKLLAAVGSVNIDARVRQYADIPGISAGKGLSCSLEDIRESDFILVFGSNIRKEYPLVNIAIKDAVEKNAAKAVAWNVCDYNFNYDIKQVRLAADNIQYIALSLLKAIFVRANLPYGDLDEILRKVDPAAEVRDVADRIVAAKAPKIIIGQDIVNTSGFETVFSILDVLEKVTSVRGGVLATNVNSVAADRIFSSSKSKFSTYKCLNGRTNTKLLLTVHTELAKDSLYGEQKLRNALENIDIVVSFTAFADKFTKDTADIILPIATHYETSGSFVDLFGNRKEFKQVVKPYAGNKELWRVLRVLGNLLELEGFDYNSIAEVTNDAYATRARVGVNHVTQILNANLDYQKEVAFVASNSMYSTTSLLRRAEPLQKTTDAKRFAGVRISQELADEIGLKGQSGVIKIYNIDNEINPEVVVDPSLQAKNIMLPRALFKDFLSSDNISIKLVEEER,not soluble
7,MRWAPVTYTVGSSSVGSFPAVQWRGINTPTQIVFSLSSSEVRSYRLRIFVPLAQVSARPQIAVNARWNGPVPAAPNQPKTRGITRGTTRGNNTLCEVDIPATALQAGSNRIAISLASGSPDNGFLSPAIVYDSVQLVAPLEHHHHHH,not soluble
8,MFKIQEVRELIKLIDSSNIDEFEYKKDGTTIKMKKRGNEVVAVQAPVAKQAVQPVAPVEVETTVAAAQVEVPKQEEKKAVQNENLHKITSPMVGTFYSSSSSSPDTPPYVSVGDRVSKDSIVCIVEAMKLFNEIDADVDGEIVEILVNNGQLVEYGQPLFLVKA,not soluble
9,MGSDKIHHHHHHMMPMDWEITFKGITYECINCAYCCSCKGWRIYLNYFDRLKLKDYEYAIEPCEGEFKYRLKVNEKGCVLLNNNLCRIHLEKGYEFKPLMCMIFPFSCMIKWDGTPLLIIKHYCSGIKKGKISKKVVNEAIELIKELYFDMFEEIIENGMEHSSKTEIFENFRVDWEEREDFGRYIFSSKTFDEMFERCREIFGNKINKLNLEEIDEIKNNLQRYNTKENEEEILRYLLELNRREHFRKLPFYREVNKLINIGNYLTKYKNVFKGEGEVDKKLFLNLK,not soluble
10,MRLLVTGGAGFIGSHFVRQLLAGAYPDVPADEVIVLDSLTYAGNRANLAPVDADPRLRFVHGDIRDAGLLARELRGVDAIVHFAAESHVDRSIAGASVFTETNVQGTQTLLQCAVDAGVGRVVHVSTNQVYGSIDSGSWTESSPLEPNSPYAASKAGSDLVARAYHRTYGLDVRITRCCNNYGPYQHPEKLIPLFVTNLLDGGTLPLYGDGANVREWVHTDDHCRGIALVLAGGRAGEIYHIGGGLELTNRELTGILLDSLGADWSSVRKVADRKGHDLRYSLDGGKIERELGYRPQVSFADGLARTVRWYRENRGWWEPLKATAPQLPATAVEVSA,soluble
11,MSTMSTPAAEQRKLVEQLMGRDFSFRHNRYSHQKRDLGLHDPKICKSYLVGECPYDLFQGTKQSLGKCPQMHLTKHKIQYEREVKQGKTFPEFEREYLAILSRFVNECNGQISVALQNLKHTAEERMKIQQVTEELDVLDVRIGLMGQEIDSLIRADEVSMGMLQSVKLQELISKRKEVAKRVRNITENVGQSAQQKLQVCEVCGAYLSRLDTDRRLADHFLGKIHLGYVKMREDYDRLMKNNRTTNASKTATTLPGRRFV,not soluble
12,GMDDQSGDQMRPELTMPPAEAEALRMAYEEAEVILEYGSGGSTVVAAELPGKHVTSVESDRAWARMMKAWLAANPPAEGTEVNIVWTDIGPTGDWGHPVSDAKWRSYPDYPLAVWRTEGFRHPDVVLVDGRFRVGCALATAFSITRPVTLLFDDYSQRRWQHQVEEFLGAPLMIGRLAAFQVEPQPIPPGSLMQLIRTMTSP,soluble
13,VEPVDPCFRANCEYQCQPLNQTSYLCVCAEGFAPIPHEPHRCQLFCNQTACPADCDPNTQASCECPEGYILDDGFICTDIDECENGGFCSGVCHNLPGTFECICGPDSALAGQIGTDCDSG,soluble
14,MNKRIVICADGTWNRPEKDLKVDFPTNVLRLARAISPIAADGKPQQVFYDWGVGSYYDEVIGGATGRGLHKNIMDGYRYIVQNYSPGDEIYLFGFSRGAYTVRCLCGLINNCGILKRPEARLIQQAFDHYKKSSAPFAPSGDKSVEFRHEHCHESREIKFVGVWDTVGAMGIPISFLGLFEDKDEFYDTKIGRNVRVARHALAIDEHRSDFEPTIWQLRDNMDMQQVWFAGAHSNVGGSYLPDKDGSLLSDNALAWMIAEAERFNLSLEPHLTAGLRPNPLATLHDSRRSFYRIKQPYLRPLDPDVAPVLLHRSVKVRWEQDPKYRPKNLQAYLEKFGWPQELIDKLAAALEHHHHHH,soluble
15,MAMNLLEDWCRGMEVDIHRSLLVTGIPEDCGQAEIEETLNGVLSPLGPYRVLNKIFVREENVKAALIEVGEGVNLSTIPREFPGRGGVWRVVCRDPTQDAEFLKNLNEFLDAEGRTWEDVVRLLQLNHPTLSQNQHQPPENWAEALGVLLGAVVQIIFCMDAEIRSREEARAQEAAEFEEMAAWALAAGRKVKKEPGLAAEVGSALKAETPNNWNATEDQHEPTKPLVRRAGAKSRSRRKKQKKNSRQEAVPWKKPKGINSNSTANLEDPEVGDAESMAISEPIKGSRKPCVNKEELALKKPMAKCAWKGPREPPQDARAEAESPGGASESDQDGGHESPPKKKAVAWVSAKNPAPMRKKKKVSLGPVSYVLVDSEDGRKKPVMPKKGPGSRREASDQKAPRGQQPAEATASTSRGPKAKPEGSPRRATNESRKV,soluble
16,MVYKNILVGLDGSSQADNAFKVACGLANALSADLHPIWIVNRDRGMDSSFGVNEDFYRDQYHQVQDKLVSYVEDAKKAGLKVTGEALVGNIKLVLANEYPKEHGIDLIVLGNTGLNTVEKLVVGSHTSYVIRNSACDVLVVK,not soluble
17,MHSQVFSAFPHSLPLRSWVNVIKNPQFVFDIHKGSITDACLSVVAQTFMDSCSTSEHRLGKDSPSNKLLYAKDIPSYKSWVERYYADIAKLPAISDQDMNAYLAEQSRLHAVEFNMLSALNEIYSYVSKYSEELIGALEQDEQARRQRLAYKVEQLINAMSIESLEHHHHHH,not soluble
18,MDDFATSSRVFEDDNDAFDFNPLEDFAFDDIDDDDDIVSGILDDGPYSIPNADNKPKFKSVSFDNAETPEERIETLFNQMPTQDDLLLGILDASQTPIFTDDLEQKVEELKQHHHSVYSPMSYCRLLERAGAIEQTNNEGLPLKEVEVEPDKVVVEGVEYWKVAAAPDVYWTATPAGLAHFQAYQPMELLRQMVQNEPQYEEIFRMVLSATAADGGESVKNIDDLVSDDPILQSPRRYAMYFIDKLERAGGIQWRGAWVAIQAGKDFLAELNA,not soluble
19,MVFYFKARPDAGDYTIFMGLDKFENEELIKYGFPEDVWFHVDKMSSAHVYLRLHRGQSFDDISEGVLEDCAQLVKANSIQGNKVNNVDVVYTPWSNLKKTASMDVGQVGFHNSKMVRTIRVEKRVNEIVNRLNKTKVERTPDLRAEREAVNAAERAERKQHLREKKKREEIDRLEKERQSEMRSYKGLMVTDKMTSNKDIASSNKSLQELEDDFM,soluble
20,MLLKLKCTVNNYAWGPKGNSSMAGSLALDGGHIPNLDKDKPYAEFWVGTHANGPAHVIEKDIALKQLLATSPELQGKHEKGNLSFLFKVLSVLGPLSIQIHPTKEQGKLLHATDPKNYPDDNHKPEIAIALTEFELLSGFRQHSQISEYLKLYSEIQELLTEEEKSQIDSLGSYGESSAQVLKKIFSRIWRTPKEKLQIVVDKLARRIQGHENKTALDEIIVYLFTLYPGDVGVFAPIFLNYFKLQPGEATFLEPNMPHAYLKGDCVECMADSDNTIRAGLTPKYIDVESLVEMLNYDETLLPKYIPNELDDGSLLFTPRGIDEFWVQEVKGPAGSIYQLPYSESCSVLTVLYGTATVTLGDASQVLNRGEVVFIGATHDAERPKINISDDFLAFRAFTPSPRALESLSNKRLIID,not soluble
21,MCMIVYFFFIHKPLAFYFIRLFHPHPFPVVLDHILLLISSLIGFKSQDSSFRHQNSDCQMNVFQVIIFLLSVLAVFSSADLSIDGESLVLSINEEGPIKVRRARETGEH,not soluble
